Data: PMC9352680, “A comprehensive thermodynamic model for RNA binding by the Saccharomyces cerevisiae Pumilio protein PUF4”
Substitutions are numbered along the chain they refer to. Names and notes keep the numbering of the source.

T1: PUF4 RNA-binding domain (Saccharomyces cerevisiae, UniProt P25339 537-888)
T1 sequence: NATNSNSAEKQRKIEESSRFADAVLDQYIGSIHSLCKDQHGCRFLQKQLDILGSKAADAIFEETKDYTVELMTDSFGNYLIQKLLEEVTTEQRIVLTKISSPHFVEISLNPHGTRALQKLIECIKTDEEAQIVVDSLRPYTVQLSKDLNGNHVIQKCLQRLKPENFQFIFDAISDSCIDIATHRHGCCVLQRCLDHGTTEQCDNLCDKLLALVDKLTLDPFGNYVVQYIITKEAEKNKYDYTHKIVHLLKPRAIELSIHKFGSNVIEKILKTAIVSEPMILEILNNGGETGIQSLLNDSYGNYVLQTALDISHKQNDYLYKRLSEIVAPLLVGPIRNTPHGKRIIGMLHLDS

B1: Ic_S2_P3E.1_K3.1_C3.1_H3.1_A3.1_F3.1_[T7C]_[A8G]_T3.1 (ssRNA)
RNA: UUUGAUUAAUAUGAUAUCGUUCUUUCUUGUAUACGUUCUUUCUCGAUAUCAUAUUAAUCUUU
B2: Ic_S2_P3E.1_K3.1_C3.1_H3.1_A3.1_F3.1_[T7C]_[A8C]_T3.1 (ssRNA)
RNA: B1 RNA with G35C
B3: Ic_S2_P3E.1_K3.1_C3.1_H3.1_A3.1_F3.1_[T7A]_[A8C]_T3.1 (ssRNA)
RNA: B1 RNA with C34A, G35C
B4: Ib_S2_P3E.1_K3.1_C3.1_H3.1_A3.1_F3.1_[T7C]_[A8T]_T3.1 (ssRNA)
RNA: B1 RNA with G35U
B5: Ia_S2_P3E.1_K3.1_C3.1_H3.1_[T1C]_A3.1_F3.1_T3.1 (ssRNA)
RNA: B1 RNA with U28C, C34U, G35A

target: T1, PUF4 RNA-binding domain; assay: Mg; RNA-MaP; 20 mM Na-HEPES pH 7.4, 30 mM KOAc, 0.75 mM MgCl2, 0.1% Tween-20, 5% glycerol, 0.1 mg/mL BSA, 2 mM DTT; 25 C; 0.0125-409.6 nM protein; settings: tags: N-His6-TEV cleaved; C-SNAP kept, Cy3B-labelled; label: tethered on chip by stalled RNA polymerase

Row | Binder | Kd
1 | UCUCUUUGUAUCUCUAUUAUCUCUU (ssRNA) [Ie_S1_P5E.1_K5.1_C5.1_H5.1_A5.1_[+5CTC]_F5.1_T5.1] | 13.2 nM
2 | UCUCUUUGUAUUUAUUAUCUCUU (ssRNA) [Ie_S1_P4E.1_K4.1_C4.1_H4.1_[+4TT]_A4.1_F4.1_T4.1] | 16.2 nM
3 | UCUCUUUGUACUUUAUUAUCUCUU (ssRNA) [Ie_S1_P5E.1_K5.1_C5.1_H5.1_[+4CT]_A5.1_F5.1_T5.1] | 2.73 nM
4 | UCUCUUUGUAUUCUAUUAUCUCUU (ssRNA) [Ie_S1_P5E.1_K5.1_C5.1_H5.1_A5.1_[+5TC]_F5.1_T5.1] | 3.27 nM
5 | UCUCUUUGUAUUCUCAUUAUCUCUU (ssRNA) [Ie_S1_P5E.1_K5.1_C5.1_H5.1_A5.1_[+6CTC]_F5.1_T5.1] | 33.8 nM
6 | UCUCUUUGUACUUAUUAUCUCUU (ssRNA) [Ie_S1_P5E.1_K5.1_C5.1_H5.1_[+4C]_A5.1_F5.1_T5.1] | 14.3 nM
7 | UCUCUUUGUAUACUCUUAUCUCUU (ssRNA) [Ie_S1_P4E.1_K4.1_C4.1_H4.1_A4.1_[+6CTC]_F4.1_T4.1] | 8.94 nM
8 | UCUCUUUGUACCUCUUAUUAUCUCUU (ssRNA) [Ie_S1_P4E.1_K4.1_C4.1_H4.1_[+4CCTCT]_A4.1_F4.1_T4.1] | 27.7 nM
9 | UCUCUUUGUAUAUCCUUAUCUCUU (ssRNA) [Ie_S1_P4E.1_K4.1_C4.1_H4.1_A4.1_[+7CCT]_F4.1_T4.1] | 16.4 nM
10 | UCUCUUUGUAUAUUCUUAUCUCUU (ssRNA) [Ie_S1_P4E.1_K4.1_C4.1_H4.1_A4.1_[+6TTC]_F4.1_T4.1] | 6.67 nM
11 | UCUCUUUGUAUACCCUUAUCUCUU (ssRNA) [Ie_S1_P4E.1_K4.1_C4.1_H4.1_A4.1_[+6CCC]_F4.1_T4.1] | 35.3 nM
12 | UCUCUUUGUAUUUCAUUAUCUCUU (ssRNA) [Ie_S1_P4E.1_K4.1_C4.1_H4.1_A4.1_[+5TTC]_F4.1_T4.1] | 39.7 nM
13 | UCUCUUUGUACCCUAUUAUCUCUU (ssRNA) [Ie_S1_P4E.1_K4.1_C4.1_H4.1_[+4CCC]_A4.1_F4.1_T4.1] | 5.85 nM
14 | UCUCUUUGUAUCUAUUAUCUCUU (ssRNA) [Ie_S1_P5E.1_K5.1_C5.1_H5.1_A5.1_[+5C]_F5.1_T5.1] | 13.7 nM
15 | UCUCUUUGUAUUCCUUAUUAUCUCUU (ssRNA) [Ie_S1_P4E.1_K4.1_C4.1_H4.1_[+4TTCCT]_A4.1_F4.1_T4.1] | 19 nM
16 | UCUCUUUGUAUCCUCUAUUAUCUCUU (ssRNA) [Ie_S1_P5E.1_K5.1_C5.1_H5.1_A5.1_[+5CCTC]_F5.1_T5.1] | 23.9 nM
17 | UCUCUUUGUAUCUCUUAUUAUCUCUU (ssRNA) [Ie_S1_P5E.1_K5.1_C5.1_H5.1_[+4TCTC]_A5.1_F5.1_T5.1] | 21.8 nM
18 | UCUCUUUGUUCUCUAUAUUAUCUCUU (ssRNA) [Ie_S1_P4E.1_K4.1_C4.1_H4.1_[+3TCTCT]_A4.1_F4.1_T4.1] | 49.6 nM
19 | UCUCUUUGUAUCCCUAUUAUCUCUU (ssRNA) [Ie_S1_P5E.1_K5.1_C5.1_H5.1_A5.1_[+5CCC]_F5.1_T5.1] | 20 nM
20 | UCUCUUUGUAUUCCUAUUAUCUCUU (ssRNA) [Ie_S1_P5E.1_K5.1_C5.1_H5.1_A5.1_[+5TCC]_F5.1_T5.1] | 10.3 nM
21 | UCUCUUUGUAUCCCUUAUUAUCUCUU (ssRNA) [Ie_S1_P4E.1_K4.1_C4.1_H4.1_A4.1_[+5CCCTT]_F4.1_T4.1] | 41 nM
22 | UCUCUUUGUAUUAUUAUCUCUU (ssRNA) [If_S1_P5E.1_K5.1_C5.1_H5.1_A5.1_F5.1_T5.1] | 4.68 nM
23 | UCUCUUUGUAUCCUCAUUAUCUCUU (ssRNA) [Ie_S1_P4E.1_K4.1_C4.1_H4.1_A4.1_[+5CCTC]_F4.1_T4.1] | 38.3 nM
24 | UCUCUUUGUAUUCUCUAUUAUCUCUU (ssRNA) [Ie_S1_P5E.1_K5.1_C5.1_H5.1_A5.1_[+5TCTC]_F5.1_T5.1] | 22.9 nM

Row | Binder | Kd
25 | UCUCUUUGUACCCUUUAUUAUCUCUU (ssRNA) [Ie_S1_P5E.1_K5.1_C5.1_H5.1_[+4CCCT]_A5.1_F5.1_T5.1] | 17.8 nM
26 | UCUCUUUGUUUCCUAUAUUAUCUCUU (ssRNA) [Ie_S1_P4E.1_K4.1_C4.1_H4.1_[+3TTCCT]_A4.1_F4.1_T4.1] | 58.7 nM
27 | UCUCUUUGUAUCCUAUUAUCUCUU (ssRNA) [Ie_S1_P4E.1_K4.1_C4.1_H4.1_[+4TCC]_A4.1_F4.1_T4.1] | 5.92 nM
28 | UCUCUUUGUAUACCUUAUCUCUU (ssRNA) [Ie_S1_P4E.1_K4.1_C4.1_H4.1_A4.1_[+6CC]_F4.1_T4.1] | 8.34 nM
29 | UCUCUUUGUAUAUCUUAUCUCUU (ssRNA) [Ie_S1_P4E.1_K4.1_C4.1_H4.1_A4.1_[+7CT]_F4.1_T4.1] | 6.9 nM
30 | UCUCUUUGUAUUUCCAUUAUCUCUU (ssRNA) [Ie_S1_P4E.1_K4.1_C4.1_H4.1_A4.1_[+5TTCC]_F4.1_T4.1] | 96.6 nM
31 | UCUCUUUGUACCCUUAUUAUCUCUU (ssRNA) [Ie_S1_P4E.1_K4.1_C4.1_H4.1_[+4CCCT]_A4.1_F4.1_T4.1] | 6.31 nM
32 | B1 | 35.1 nM
33 | B2 | 21.1 nM
34 | B3 | 27.7 nM
35 | B4 | 3.86 nM
36 | B5 | 136 nM
37 | UCUCUUUGUAUAUUUUAUCUCUU (ssRNA) [Ie_S1_P4E.1_K4.1_C4.1_H4.1_A4.1_[+7TT]_F4.1_T4.1] | 4.6 nM
38 | UCUCUUUGUAUCUCAUUAUCUCUU (ssRNA) [Ie_S1_P4E.1_K4.1_C4.1_H4.1_A4.1_[+5CTC]_F4.1_T4.1] | 37.1 nM
39 | UCUCUUUGUACCUCUAUUAUCUCUU (ssRNA) [Ie_S1_P4E.1_K4.1_C4.1_H4.1_[+4CCTC]_A4.1_F4.1_T4.1] | 12.7 nM
40 | UCUCUUUGUACCUUAUUAUCUCUU (ssRNA) [Ie_S1_P4E.1_K4.1_C4.1_H4.1_[+4CCT]_A4.1_F4.1_T4.1] | 4.83 nM
41 | UCUCUUUGUAUUUUAUUAUCUCUU (ssRNA) [Ie_S1_P5E.1_K5.1_C5.1_H5.1_[+4TT]_A5.1_F5.1_T5.1] | 2.74 nM
42 | UCUCUUUGUAUCCCAUUAUCUCUU (ssRNA) [Ie_S1_P4E.1_K4.1_C4.1_H4.1_A4.1_[+5CCC]_F4.1_T4.1] | 76.1 nM
43 | UCUCUUUGUAUUCCAUUAUCUCUU (ssRNA) [Ie_S1_P4E.1_K4.1_C4.1_H4.1_A4.1_[+5TCC]_F4.1_T4.1] | 62 nM
44 | UCUCUUUGUAUCUUAUUAUCUCUU (ssRNA) [Ie_S1_P4E.1_K4.1_C4.1_H4.1_[+4TCT]_A4.1_F4.1_T4.1] | 4 nM
45 | UCUCUUUGUACUCUUAUUAUCUCUU (ssRNA) [Ie_S1_P5E.1_K5.1_C5.1_H5.1_[+4CTC]_A5.1_F5.1_T5.1] | 6.55 nM
46 | UCUCUUUGUCUCUCAUAUUAUCUCUU (ssRNA) [Ie_S1_P4E.1_K4.1_C4.1_H4.1_[+3CTCTC]_A4.1_F4.1_T4.1] | 948 nM
47 | UCUCUUUGUAUUUCCUAUUAUCUCUU (ssRNA) [Ie_S1_P5E.1_K5.1_C5.1_H5.1_A5.1_[+5TTCC]_F5.1_T5.1] | 15.9 nM
